From publication PMC6279779

Columns and labels:
[1] = biological target: soluble domain of Arabidopsis thaliana cytochrome c1 (Arabidopsis thaliana)
[2] = biological target: soluble domain of Arabidopsis thaliana cytochrome c1 (Arabidopsis thaliana); remark: listed apart in the source

distance decay factor (β) of the pCc1–hCc current after addition of wild-type hCc (12.5 μM, without C-terminal cysteine) to the medium, as an inhibition experiment [1]: 3 nm^−1 | average distance decay factor (β) of the pCc1–hCc current against the electrochemical gate potential at 200 mV constant bias; minimum at −0.25 V EC gate potential [2]: 0.5 nm^−1
Substance: Homo sapiens E104C cytochrome c mutant (from UniProt P99999 1-105) (natural protein)
